Results taken from patent US20200024330A1.

Legend:
Assay in all cases: cell-based or functional assay
[1] = target: HIV-1 JR-CSF Env E321aA (HIV-1 isolate JR-CSF) (UniProt P20871)
[2] = target: HIV-1 JR-CSF Env I309A (HIV-1 JR-CSF) (UniProt P20871)
[3] = target: HIV-1 JR-CSF Env R315A (HIV-1 isolate JR-CSF) (UniProt P20871)
[4] = target: HIV-1 JR-CSF Env T413A (HIV-1 (isolate JR-CSF)) (UniProt P20871)
[5] = target: HIV-1 JR-CSF Env D325A (HIV-1 isolate JR-CSF) (UniProt P20871)
[6] = target: HIV-1 JR-CSF Env T202A (HIV-1 JR-CSF) (UniProt P20871)
[7] = target: HIV-1 Env of isolate 92TH021 (pseudovirus) (HIV-1)
[8] = target: HIV-1 Env of isolate 6535.3 (HIV-1)
[9] = target: HIV-1 Env of isolate MGRM-D-029 (HIV-1)
[10] = target: HIV-1 Env of isolate MGRM-AE-001 (pseudovirus) (HIV-1)
[11] = target: HIV-1 Env of isolate APV_6 (HIV-1)
[12] = target: HIV-1 Env of isolate MGRM-AE-005 (pseudovirus) (HIV-1)
[13] = target: HIV-1 Env of isolate MGRM-D-008 (subtype D), on pseudovirus (HIV-1)
[14] = target: HIV-1 MGRM-D-018 Env (pseudovirus) (HIV-1)
[15] = target: HIV-1 93UG077 Env (pseudovirus) (HIV-1)
[16] = target: HIV-1 92UG005 Env (pseudovirus) (HIV-1)
[17] = target: HIV-1 92UG024 Env (pseudovirus) (HIV-1)
[18] = target: HIV-1 CMU02 Env (pseudovirus) (HIV-1)
[19] = target: HIV-1 Env of isolate PVO.4 (subtype B) (HIV-1)
[20] = target: HIV-1 Env of isolate MGRM-Chronic-B-024 (subtype B) (HIV-1)

PGT-122 (antibody)
Fold IC50 increase relative to wild-type [1]: 0.4 fold | Fold IC50 increase relative to wild-type [2]: 2.1 fold | Fold IC50 increase relative to wild-type [3]: 0.5 fold | Fold IC50 increase relative to wild-type [4]: 0.8 fold | Fold IC50 increase relative to wild-type [5]: 44 fold | Fold IC50 increase relative to wild-type [6]: 1.5 fold

VRC01 (antibody)
IC50 (µg/mL), pseudovirus neutralization [7]: 0.616 µg/mL | IC50 [8]: 1.75 µg/mL | IC50, pseudovirus neutralization [9]: 3.22 µg/mL | IC50 (µg/mL), pseudovirus neutralization [10]: 0.167 µg/mL | IC50 [11]: 1.81 µg/mL | IC50 (µg/mL), pseudovirus neutralization [12]: 0.029 µg/mL | IC50, pseudovirus neutralization [13]: 0.854 µg/mL

5141_B17 (PGT-126) (antibody)
IC50 [14]: 0.0093 µg/mL | IC80 [14]: 0.0391 µg/mL | IC90 [14]: 0.0918 µg/mL | IC95 [14]: 0.205 µg/mL | IC50 [15]: 0.0256 µg/mL | IC80 [15]: 0.102 µg/mL | IC90 [15]: 0.238 µg/mL | IC95 [15]: 0.577 µg/mL | IC50 [16]: 0.0181 µg/mL | IC80 [16]: 0.145 µg/mL | IC90 [16]: 0.553 µg/mL | IC95 [16]: 2.45 µg/mL | IC50 [17]: > 10 µg/mL | IC80 [17]: > 10 µg/mL | IC90 [17]: > 10 µg/mL | IC95 [17]: > 10 µg/mL | IC50 [18]: > 10 µg/mL | IC80 [18]: > 10 µg/mL | IC90 [18]: > 10 µg/mL | IC95 [18]: > 10 µg/mL

4838_L06 (PGT-121) (antibody)
neutralization IC80 [14]: 0.0231 µg/mL | neutralization IC90 [14]: 0.0414 µg/mL | neutralization IC95 [14]: 0.0715 µg/mL | neutralization IC90 [15]: 0.369 µg/mL | neutralization IC95 [15]: 0.74 µg/mL

1496_C09 (PG9) (TCN-109) (antibody)
IC50 (µg/mL), pseudovirus neutralization [19]: 24.8 µg/mL | IC50 (µg/mL), pseudovirus neutralization [20]: 0.222 µg/mL
